Assay results from patent US20140348857A1, “METHODS OF DIAGNOSIS AND TREATMENT OF ENDOPLASMIC RETICULUM (ER) STRESS-RELATED CONDITIONS” (MASSACHUSETTS INSTITUTE OF TECHNOLOGY, priority 2011, published 2014).

Legend:
[1] = target: T1, PARP-16 (Homo sapiens, UniProt Q8N5Y8); experiment: 32P-NAD+ incorporation assay with recombinant GST-PARP-16 (self-modification); assay type: biochemical; conditions: of wild-type GST-PARP-16; purified from E. coli
T1 construct: Asterisk=full-length proteins; made in house; host or cells: E. coli BL21 RIPL
T1 sequence (Q8N5Y8 1-322): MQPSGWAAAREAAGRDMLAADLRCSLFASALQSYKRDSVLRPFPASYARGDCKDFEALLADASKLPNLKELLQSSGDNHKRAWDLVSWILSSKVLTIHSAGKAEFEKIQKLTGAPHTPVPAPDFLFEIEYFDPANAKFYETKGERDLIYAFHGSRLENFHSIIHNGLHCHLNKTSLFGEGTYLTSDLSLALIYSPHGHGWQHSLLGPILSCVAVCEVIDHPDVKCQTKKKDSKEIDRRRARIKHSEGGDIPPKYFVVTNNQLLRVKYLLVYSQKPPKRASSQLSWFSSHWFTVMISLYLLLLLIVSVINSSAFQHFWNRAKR
Excerpt: Human PARP-16 (ADP-ribosyl)ates itself and contains histidine and tyrosine residues at amino acid 152 and 182 within its catalytic domain, residues thought to be critical for enzymatic activity (FIG. 1B) (Kleine et al., Mol. Cell 32: 57-69, 2008). To determine if these residues are required for enzymatic activity, GST-PARP-16 and GST-PARP-16^H152Q Y182A were expressed and purified in E. coli, and ^32P-NAD^+ incorporation assays performed.
(§1) For ER microsome-based assays including NAD^+ incorporation and immunoprecipitation, ER microsomes were fractionated from HeLa cells via isopycnic flotation method as described in Stephens et al., Methods Mol Biol. 419: 197-214, 2008, and incubated with 100 μM β-NAD^+ (MP Biomedicals) and 2.5 μCi of ^32P-NAD^+ (Perkin Elmer) in a PARP reaction buffer (50 mM HEPES pH 7.4, 150 mM NaCl, 1 mM MgCl2, 10 mM EGTA, 1 mM DTT, 0.1 mM Na3VO4, 50 mM NaF, 5 mM β-glycerophosphate, 1 μM ADP-HPD, and protease inhibitor cocktail) at 25° C. for 30 min. The ratio between unlabeled and labeled NAD^+ was kept constant upon titration of NAD^+ concentration. The ^32P-labeled ER microsomes were then lysed by addition of Triton X-100 at 1%. Proteins were immunoprecipitated, eluted in a 1× Laemmli sample buffer by boiling at 65° C. for 10 min, and then analyzed using autoradiogram and immunoblotting. […]

[2] = system: PERK; experiment: NAD+ incorporation assay with ER microsome-purified PERK and recombinant GST-PARP-16; assay type: biochemical, human; conditions: PERK purified from ER microsomes of unstressed PARP-16 knockdown cells
Excerpt: We examined NAD^+ incorporation onto GFP-PERK or GFP-IRE1α via EMAA in cells transfected with control or PARP-16 siRNA, treated with or without ER stress inducing drugs. Low level (ADP-ribosyl)ation of GFP-PERK and GFP-IRE1α was detected in control knock-down cells in the absence of drug (FIGS. 6C and 6D), likely due to the previously described UPR induction upon PERK or IRE1α expression (Bertolotti et al., Nat. Cell Biol. 2: 326-332, 2000; Kimata et al., Curr. Opin. Cell Biol. 23: 135-142, 2011).
as §1

[3] = system: GFP-PERK; experiment: PERK kinase assay after (ADP-ribosyl)ation of ER microsomes by GST-PARP-16; assay type: biochemical, human; conditions: versus GST-PARP-16 samples; depending on NAD concentration
Protocol: We examined PERK and IRE1α kinase activity in response to (ADP-ribosyl)ation by PARP-16 via self-phosphorylation assays. ER microsomes purified from GFP-PERK- or GFP-IRE1α-expressing cells were washed with 1M NaCl to remove bound PARP-16, returned to physiological salt buffer, split into duplicate reactions, and incubated with unlabeled NAD^+ plus either GST-PARP-16 or GST-PARP-16^H152Q Y182A, or ^32P-NAD^+ plus either recombinant protein. (ADP-ribosyl)ated GFP-PERK or GFP-IRE1α were extracted from the microsomes and purified under 1 M NaCl conditions to remove added recombinant PARP-16 proteins. Reactions containing unlabeled NAD^+ were incubated with ^32P-ATP, and reactions containing ^32P-NAD^+ were incubated with unlabeled ATP. […] Phosphorylation by GFP-IRE1α at the molecular weight of GST-PARP-16 and GST-PARP16^H152Q Y182A was also detected (FIG. 7E).
PERK and IRE1α kinase assays were performed as described herein. […] Proteins were immunoprecipitated, eluted in 1× Laemmli sample buffer by heating at 65° C. for 10 min, and then analyzed using autoradiogram and immunoblotting.

B1: GST-PARP-16^H152Q Y182A: recombinant GST-PARP-16 catalytically inactive mutant, His152 and Tyr182 mutated, purified in E. coli (protein, UniProt Q8N5Y8 1-322, looked up, variant H152Q Y182A)
Protein …: MQPSGWAAAREAAGRDMLAADLRCSLFASALQSYKRDSVLRPFPASYARGDCKDFEALLADASKLPNLKELLQSSGDNHKRAWDLVSWILSSKVLTIHSAGKAEFEKIQKLTGAPHTPVPAPDFLFEIEYFDPANAKFYETKGERDLIYAFQGSRLENFHSIIHNGLHCHLNKTSLFGEGTALTSDLSLALIYSPHGHGWQHSLLGPILSCVAVCEVIDHPDVKCQTKKKDSKEIDRRRARIKHSEGGDIPPKYFVVTNNQLLRVKYLLVYSQKPPKRASSQLSWFSSHWFTVMISLYLLLLLIVSVINSSAFQHFWNRAKR
modifications: GST fusion
32P-NAD+ incorporation activity relative to wild-type [1]: ~6% | ADP-ribosylation of PERK [2]: not | reduction of phosphorylation by PERK at the molecular weight of GST-PARP-16 [3]: 5-10 fold
